Patent US20200207857A1 (SPARX BIOSCIENCE, published 2020)
Residue numbers refer to the chain shown, from its start.

Tests used:
[1] = target: T1, human Claudin 18.2 (CLDN 18.2) expressed on HEK293 / HEK293T cells (human); assay: cell-based ELISA (InCell Elisa) on fixed HEK293_CLDN18.2 cells, OD450; Kd table under the graph, no unit in the table, unit from the x axis log[antibody] ug/ml
T1 construct: Full-length CLDN18.2 on transiently or stably transfected HEK293/HEK293T cells; also called CLD18.2

[2] = target: T1, human Claudin 18.2 (CLDN 18.2) …; assay: cell-based ELISA (InCell Elisa) on formalin-fixed HEK293_CLDN18.2 cells, OD450; Kd box under the graph, no unit in the box, unit from the x axis log[antibody] nM; the curve on HEK293T cells stays flat at about 0.1
[3] = target: T1, human Claudin 18.2 (CLDN 18.2) …; assay: cell-based ELISA (InCell Elisa) on fixed HEK293_CLDN18.2 cells, y axis RLU; Kd table under the graph, no unit in the table, unit from the x axis log[antibody] ug/ml
[4] = target: T1, human Claudin 18.2 (CLDN 18.2) …; assay: flow cytometry on HEK293 cells transiently transfected with GFP and human CLDN 18.2
Protocol: After cell detachment using 2 mM EDTA/PBS cells were washed with complete growth medium and plated at approximately 1-5×10⁵ cells/well in U-bottom microtiter plates. Cells were incubated for […]. at 4° C. with monoclonal antibody 3B8 followed by three washing steps with ice cold PBS and finally incubation with Dylight 650-conjugated secondary anti-IgG antibody. Binding was assessed by flow cytometry using a BD, Accuri™ C6 Plus. Fluorescence marker expression was plotted on the horizontal axis against antibody binding on the vertical axis. Mouse antibodies 3B8 were detected to bind specifically to the surface of fluorescence marker expressing HEK293 cells (FIG. 3, cells in Q5-UR).

T1 sequence (chain, as listed by the source limits assumed): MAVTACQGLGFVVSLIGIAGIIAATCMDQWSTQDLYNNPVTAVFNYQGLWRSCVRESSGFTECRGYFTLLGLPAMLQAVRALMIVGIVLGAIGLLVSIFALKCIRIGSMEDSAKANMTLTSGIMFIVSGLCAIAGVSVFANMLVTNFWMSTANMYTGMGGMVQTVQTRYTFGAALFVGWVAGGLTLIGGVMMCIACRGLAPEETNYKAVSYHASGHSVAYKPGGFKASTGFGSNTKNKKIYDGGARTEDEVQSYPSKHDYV

B1: Anti-CLDN 18.2-5C9o (humanized antibody h5C9o) (antibody, V domains shown)
VH: EVQLVESGGGLVQPGGSLRLSCAVSGYTFSMNWVRQAPGKGLEWVAWINMYTGEPTYADDFKGRFTISRDDSKNTLYLQMNSLRAEDTAVYYCARLYNGNSLDYWGQGTLVTVSS
VL: DIQMTQSPSSLSASVGDRVTITCKSSQSLLNSGNQKSYLTWYQQKPGKAPKLLIYWASTLESGVPSRFSGSGSGTDYTLTISSLQPEDFATYYCQNAYSFPFTFGQGTKVEIK
notes: Humanized IgG; The general method joins the variable domains to human IgG1 constant domains; Full chains are not mapped to the name; also called CLDN18.2-h5C9o
Question: How did the Kd [1] turn out when B1 was run?
Answer: The Kd was 0.126 µg/mL.

Question: What about the Kd [2] of the same binder?
Answer: Its Kd is 0.169 nM.

B2: humanized anti-Claudin 18.2 antibody h5C9oao (antibody, human IgG1, kappa, V domains shown)
VH: B1 VH with Y97A, N98R, L102M
VL: DIQMTQSPSSLSASVGDRVTITCKSSQSLLNSGNQKSYLTWYQQKPGKAPKLLIYWASTLESGVPSRFSGSGSGTDYTLTISSLQPEDFATYYCQNAYFFPFTFGQGTKVEIKR
Question: Which Kd [3] does the source give for B2 here?
Answer: Its Kd is 0.154 µg/mL.

Question: What about the Kd [1] of the same binder?
Answer: The Kd was 0.149 µg/mL.

B3: h5C9o Fc mutation (antibody, V domains shown)
VH: B1 VH
VL: B2 VL with F99S
Question: Which results are given for B3?
Answer: Kd [3]: 0.225 µg/mL; Kd [1]: 0.213 µg/mL

B4: Anti-CLDN 18.2-5C9ob (humanized antibody h5C9ob) (antibody, human IgG1, V domains shown)
VH: B1 VH
VL: B1 VL with S99F
notes: the general method uses human IgG1 constant domains; also called CLDN18.2-h5C9ob
Question: With B4 as the binder, how does the Kd [3] read?
Answer: Its Kd is 0.206 µg/mL.

Question: And the Kd [1]?
Answer: The Kd was 0.153 µg/mL.

B5: Anti-CLDN 18.2-5C9oai (humanized antibody h5C9oai) (antibody, human IgG1, V domains shown)
VH: B1 VH with Y97A, N98R, L102M
VL: B1 VL
notes: the general method uses human IgG1 constant domains
Question: B5 was tested. Which Kd [3] did it give?
Answer: The Kd was 0.18 µg/mL.

B6: Anti-CLDN 18.2-5C9oag (humanized antibody h5C9oag) (antibody, human IgG1, V domains shown)
VH: B1 VH with Y97A, N98R, L102I
VL: B1 VL
notes: as for B5
Question: How did the Kd [3] turn out when B6 was run?
Answer: Its Kd is 0.191 µg/mL.

B7: Anti-CLDN 18.2-5C9oae (humanized antibody h5C9oae) (antibody, human IgG1, V domains shown)
VH: B1 VH with N98R
VL: B1 VL with S99F
notes: as for B5
Question: How did the Kd [3] turn out when B7 was run?
Answer: The Kd was 0.184 µg/mL.

Question: And the Kd [1]?
Answer: The Kd was 0.123 µg/mL.

B8: humanized anti-Claudin 18.2 antibody h5C9oan (antibody, human IgG1, kappa, V domains shown)
VH: B1 VH with L96S, Y97S, N98R, S101G, L102F
VL: B2 VL
Question: Which results are given for B8?
Answer: Kd [3]: 0.194 µg/mL; Kd [1]: 0.168 µg/mL

B9: Anti-CLDN 18.2-3B8 (antibody, V domains shown)
VH: EVKLVESGGGLVKPGGSLKLSCAASGFTFSSYAMSWVRQTPEKRLEWVASISSGGSTYYPDSVKGRFTISRDNARNILYLQMSSLRSEDTAMYYCASFGYDVAMDYWGQGTSVTVSS
VL: DVLMTQTPLSLPVSLGDQASISCRSSQSIVHSNGNTYLQWYLQKPGQSPKLLIYKVSNRFSGVPDRFSGSGSGTDFTLKISRVEAEDLGVYYCFQGSHVPFTFGSGTKLEIK
notes: Mouse monoclonal antibody; also called monoclonal antibody 3B8
Question: B9 was tested. Which EC50 [4] did it give?
Answer: The EC50 was 1 to 2 µg/mL.
